Results from patent publication US20050250700A1.
Bridge positions count the residues as written; N and C are the ends. Side chains are listed from the residue outwards. * marks the point of attachment. Biotin = O=C1N[C@H]2[C@H](CS[C@H]2CCCCC(=O)*)N1; AEEA = NCCOCCOCC(=O)O

Assays:
[1] = target: KDR (VEGFR-2), full-length receptor on cells (human), P35968; assay: competitor 125I-VEGF (300 pM) on KDR-transfected 293H cells; peptide 30 µM; settings: remark: other sources report otherwise
[2] = target: KDR (VEGFR-2), full-length receptor on cells (human), P35968; assay: competitor 125I-VEGF (300 pM) on KDR-transfected 293H cells; peptide 0.3 µM; settings: remark: other sources report otherwise

KDR (VEGFR-2), full-length receptor on cells (human), P35968, sequence (P35968 20-1356): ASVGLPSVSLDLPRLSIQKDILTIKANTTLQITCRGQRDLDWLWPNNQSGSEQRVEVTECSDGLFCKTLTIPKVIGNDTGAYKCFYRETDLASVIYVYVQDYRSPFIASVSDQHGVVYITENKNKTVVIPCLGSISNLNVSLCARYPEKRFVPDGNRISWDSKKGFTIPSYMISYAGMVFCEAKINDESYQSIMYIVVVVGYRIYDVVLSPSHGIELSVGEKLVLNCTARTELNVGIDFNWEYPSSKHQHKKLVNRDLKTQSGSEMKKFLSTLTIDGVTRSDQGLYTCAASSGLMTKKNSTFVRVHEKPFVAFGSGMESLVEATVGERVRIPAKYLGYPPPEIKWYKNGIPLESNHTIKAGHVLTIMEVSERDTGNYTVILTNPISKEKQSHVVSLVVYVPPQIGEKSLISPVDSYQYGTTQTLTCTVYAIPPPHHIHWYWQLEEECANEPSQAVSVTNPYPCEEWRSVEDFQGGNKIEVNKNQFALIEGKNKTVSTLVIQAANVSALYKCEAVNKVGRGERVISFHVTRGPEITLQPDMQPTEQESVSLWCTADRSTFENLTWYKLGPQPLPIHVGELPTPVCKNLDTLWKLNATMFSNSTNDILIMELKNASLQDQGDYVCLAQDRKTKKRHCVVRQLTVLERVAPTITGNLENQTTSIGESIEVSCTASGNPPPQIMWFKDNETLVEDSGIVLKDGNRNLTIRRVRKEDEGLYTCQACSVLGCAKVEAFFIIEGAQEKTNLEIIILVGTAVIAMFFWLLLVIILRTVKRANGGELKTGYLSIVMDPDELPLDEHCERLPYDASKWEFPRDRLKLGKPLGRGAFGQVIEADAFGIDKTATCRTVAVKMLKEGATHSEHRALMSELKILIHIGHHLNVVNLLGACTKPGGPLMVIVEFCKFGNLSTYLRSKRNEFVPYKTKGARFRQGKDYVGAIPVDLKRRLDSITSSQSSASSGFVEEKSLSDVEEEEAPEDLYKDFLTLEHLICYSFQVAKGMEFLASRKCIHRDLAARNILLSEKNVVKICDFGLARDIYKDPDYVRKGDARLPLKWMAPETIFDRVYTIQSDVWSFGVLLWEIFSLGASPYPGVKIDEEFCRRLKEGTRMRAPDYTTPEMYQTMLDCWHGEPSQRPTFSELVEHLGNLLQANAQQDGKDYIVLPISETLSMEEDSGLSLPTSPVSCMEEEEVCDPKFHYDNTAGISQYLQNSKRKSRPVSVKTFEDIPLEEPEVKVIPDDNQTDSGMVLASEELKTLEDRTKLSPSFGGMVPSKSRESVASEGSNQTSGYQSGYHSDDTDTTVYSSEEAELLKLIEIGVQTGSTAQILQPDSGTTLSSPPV

B1: biotinylated SEQ ID NO:264 with a JJ spacer (peptide)
peptide: Ac-AGPKWCEEDWYYCMITGTGGGK([AEEA-AEEA-Biotin])-NH2
modifications: disulfide 6-13 (inferred)
**Q.** Which results are given for B1?
**A.** % inhibition of 125I-labeled VEGF binding [1]: 48%; % inhibition of 125I-labeled VEGF binding [2]: 24.4%
